From PMC7113306, “Molecular basis of ALK1-mediated signalling by BMP9/BMP10 and their prodomain-bound forms” (Nature Communications, 2020) come the findings set out here.

Data set [1] concerns the target T1, ALK1 extracellular domain (ALK1 ECD) (human, UniProt P37023 22-118).
T1 construct: activin receptor-like kinase 1 (ALK1), human, cDNA NM_000020, amino acids 22-118; Released from DsbA-(His)6 by TEV protease; also called ALK1 monomer; source: E. coli Rosetta DE3, periplasm, purified (Ni-NTA, TEV cleavage, Superdex 75); not shown: DsbA, N-terminal, cleaved; His6, N-terminal, cleaved
The experiment in a line: crystal structure; BMP10 GF-domain with ALK1 ECD, 2.3 Å and 2.8 Å, space group P6_(5)22. Conditions: both partners purified.

Data set [2] deals with the molecule itself. Described as above.
The target in a further data set is T2, soluble endoglin (sENG) (human, UniProt P17813 26-586).
T2 construct: signal peptide in the construct; endoglin (ENG), human, residue 1-586 of the cDNA; source: HEK EBNA, transfected (pCEP4), purified from conditioned medium (HiTrap Excel, HiTrap Q, Superdex 200)
T2 sequence (looked up): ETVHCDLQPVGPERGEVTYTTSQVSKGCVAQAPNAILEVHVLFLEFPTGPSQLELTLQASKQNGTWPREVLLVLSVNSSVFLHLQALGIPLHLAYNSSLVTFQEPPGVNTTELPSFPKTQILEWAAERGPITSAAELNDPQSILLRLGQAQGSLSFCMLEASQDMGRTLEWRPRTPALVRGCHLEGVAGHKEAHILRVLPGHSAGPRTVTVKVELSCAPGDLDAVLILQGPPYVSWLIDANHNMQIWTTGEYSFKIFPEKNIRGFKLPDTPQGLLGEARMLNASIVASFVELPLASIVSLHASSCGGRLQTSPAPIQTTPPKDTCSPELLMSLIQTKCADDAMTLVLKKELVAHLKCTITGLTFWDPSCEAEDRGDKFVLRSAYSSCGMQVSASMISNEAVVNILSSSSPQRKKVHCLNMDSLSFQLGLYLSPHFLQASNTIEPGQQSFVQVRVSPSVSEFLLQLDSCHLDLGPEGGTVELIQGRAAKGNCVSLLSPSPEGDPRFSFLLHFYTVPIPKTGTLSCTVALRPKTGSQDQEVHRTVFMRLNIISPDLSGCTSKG
As to the kind of experiment: SEC; analytical gel filtration, Superdex 200 10/300, 20 mM Tris.HCl, 150 mM NaCl, pH 7.4; 100 μg protein with 2-fold molar excess of ALK1 ECD; peaks checked by SDS-PAGE and anti-prodomain blot. To be noted: both partners purified.

Data set [3] concerns the molecule itself. As to the kind of experiment: crystal structure; pro-BMP9 mixed with ALK1 ECD at 1:1.5, 3.3 Å, space group P6_(1).

T1 sequence (P37023 22-118): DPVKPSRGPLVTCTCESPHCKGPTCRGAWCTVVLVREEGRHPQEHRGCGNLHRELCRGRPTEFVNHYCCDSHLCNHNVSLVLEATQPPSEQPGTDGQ

B1: BMP10 GF-domain from pro-BMP10 (ligand, human, UniProt O95393 317-424, looked up)
chain: NAKGNYCKRTPLYIDFKEIGWDSWIIAPPGYEAYECRGVCNYPLAEHLTPTKHAIIQALVHLKNSQKASKACCVPTKLEPISILYLDKGVVTYKFKYEGMAVSECGCR
notes: BMP10 GF-domain, human, the processed C-terminal product of full length proBMP10; also called BMP10 GF-domain disulphide-linked dimer; source: HEK EBNA, as part of purified pro-BMP10
Consider B1, for which the “stoichiometry N” value is 1 ALK1 ECD per BMP10 monomer (2:2) in data set [1] and 2 in data set [2].

B2: BMP9 GF-domain from pro-BMP9 (ligand, human, UniProt Q9UK05 320-429, looked up)
chain: SAGAGSHCQKTSLRVNFEDIGWDSWIIAPKEYEAYECKGGCFFPLADDVTPTKHAIVQTLVHLKFPTKVGKACCVPTKLSPISVLYKDDMGVPTLKYHYEGMSVAECGCR
notes: BMP9 GF-domain, human, the processed C-terminal product of full-length proBMP9; also called BMP9 dimer; source: HEK EBNA, as part of purified pro-BMP9
Regarding B2, in the data set with soluble endoglin (sENG), the binding result is “binds”. For the same molecule, the “stoichiometry N” value in data set [3] amounted to 2.
